Measured values published in patent US9149523B2, “Compositions and methods for treating cancer and neurodegenerative diseases” (Yeda Research and Development Co. Ltd., priority 2010, dated 2015).

System: HEK 293T cells
Assay: Cell detachment assay 24 h after transfection
Assay type: cell-based, human
Conditions: 24 h post-transfection, versus luciferase-transfected control cells, p<0.01 between the two constructs
Description: Cell detachment was assessed as described before (Widau, Jin et al. 2010), by counting the adherent cells left in the tissue culture plate after 24 h of transfection with either DAPk WT or ΔP-Loop. Briefly, cells were washed twice in PBS to remove detached cells. Then, adherent cells were trypsinized and counted with a Countess® Automated Cell Counter (Invitrogen). The extent of cell detachment is defined as (the number of control cells—the number of treated cells)/(the number of control cells), where control cells are HEK 293T cell transected with the irrelevant protein luciferase.
The functional effects of the GTP binding on DAPk's ability to induce some of its canonical phenotypic effects in cell cultures, namely cell rounding and detachment, and membrane blebbing, was assessed. These DAPk associated cellular changes are dependent on DAPk's catalytic activity and have been successfully used in other studies to assess DAPk activity in vivo (Widau, Jin et al. 2010). The necessity of the GTP-binding to the ROC domain for the extent of these effects on HEK 293T cells was examined. This was achieved by comparing DAPk WT to its P-Loop deletant counterpart. FIG. 6A presents a western blot analysis showing even expression levels between the constructs used in the cell detachment assay, ruling out any possibility of false results generated by uneven expression levels. […]

B1: WT protein: tagged human full-length death-associated protein kinase (DAPk), expressed by transfection (protein)
chain: MTVFRQENVDDYYDTGEELGSGQFAVVKKCREKSTGLQYAAKFIKKRRTKSSRRGVSREDIEREVSILKEIQHPNVITLHEVYENKTDVILILELVAGGELFDFLAEKESLTEEEATEFLKQILNGVYYLHSLQIAHFDLKPENIMLLDRNVPKPRIKIIDFGLAHKIDFGNEFKNIFGTPEFVAPEIVNYEPLGLEADMWSIGVITYILLSGASPFLGDTKQETLANVSAVNYEFEDEYFSNTSALAKDFIRRLLVKDPKKRMTIQDSLQHPWIKPKDTQQALSRKASAVNMEKFKKFAARKKWKQSVRLISLCQRLSRSFLSRSNMSVARSDDTLDEEDSFVMKAIIHAINDDNVPGLQHLLGSLSNYDVNQPNKHGTPPLLIAAGCGNIQILQLLIKRGSRIDVQDKGGSNAVYWAARHGHVDTLKFLSENKCPLDVKDKSGEMALHVAARYGHADVAQLLCSFGSNPNIQDKEEETPLHCAAWHGYYSVAKALCEAGCNVNIKNREGETPLLTASARGYHDIVECLAEHGADLNACDKDGHIALHLAVRRCQMEVIKTLLSQGCFVDYQDRHGNTPLHVACKDGNMPIVVALCEANCNLDISNKYGRTPLHLAANNGILDVVRYLCLMGASVEALTTDGKTAEDLARSEQHEHVAGLLARLRKDTHRGLFIQQLRPTQNLQPRIKLKLFGHSGSGKTTLVESLKCGLLRSFFRRRRPRLSSTNSSRFPPSPLASKPTVSVSINNLYPGCENVSVRSRSMMFEPGLTKGMLEVFVAPTHHPHCSADDQSTKAIDIQNAYLNGVGDFSVWEFSGNPVYFCCYDYFAANDPTSIHVVVFSLEEPYEIQLNQVIFWLSFLKSLVPVEEPIAFGGKLKNPLQVVLVATHADIMNVPRPAGGEFGYDKDTSLLKEIRNRFGNDLHISNKLFVLDAGASGSKDMKVLRNHLQEIRSQIVSVCPPMTHLCEKIISTLPSWRKLNGPNQLMSLQQFVYDVQDQLNPLASEEDLRRIAQQLHSTGEINIMQSETVQDVLLLDPRWLCTNVLGKLLSVETPRALHHYRGRYTVEDIQRLVPDSDVEELLQILDAMDICARDLSSGTMVDVPALIKTDNLHRSWADEEDEVMVYGGVRIVPVEHLTPFPCGIFHKVQVNLCRWIHQQSTEGDADIRLWVNGCKLANRGAELLVLLVNHGQGIEVQVRGLETEKIKCCLLLDSVCSTIENVMATTLPGLLTVKHYLSPQQLREHHEPVMIYQPRDFFRAQTLKETSLTNTMGGYKESFSSIMCFGCHDVYSQASLGMDIHASDLNLLTRRKLSRLLDPPDPLGKDWCLLAMNLGLPDLVAKYNTSNGAPKDFLPSPLHALLREWTTYPESTVGTLMSKLRELGRRDAADFLLKASSVFKINLDGNGQEAYASSCNSGTSYNSISSVVSR
modifications: left off: small tags and cut ends
notes: tagged human full-length death-associated protein kinase (DAPk), expressed by transfection
cell detachment: 17.4%±7.4%
